Assay results published in article PMC6092189 (Nature structural & molecular biology, 2018).

B1: recombinant human β-cardiac myosin subfragment-1 (short S1, sS1, MYH7 residues 1-808) with C-termina (complex)
chain 1: MGDSEMAVFGAAAPYLRKSEKERLEAQTRPFDLKKDVFVPDDKQEFVKAKIVSREGGKVTAETEYGKTVTVKEDQVMQQNPPKFDKIEDMAMLTFLHEPAVLYNLKDRYGSWMIYTYSGLFCVTVNPYKWLPVYTPEVVAAYRGKKRSEAPPHIFSISDNAYQYMLTDRENQSILITGESGAGKTVNTKRVIQYFAVIAAIGDRSKKDQSPGKGTLEDQIIQANPALEAFGNAKTVRNDNSSRFGKFIRIHFGATGKLASADIETYLLEKSRVIFQLKAERDYHIFYQILSNKKPELLDMLLITNNPYDYAFISQGETTVASIDDAEELMATDNAFDVLGFTSEEKNSMYKLTGAIMHFGNMKFKLKQREEQAEPDGTEEADKSAYLMGLNSADLLKGLCHPRVKVGNEYVTKGQNVQQVIYATGALAKAVYERMFNWMVTRINATLETKQPRQYFIGVLDIAGFEIFDFNSFEQLCINFTNEKLQQFFNHHMFVLEQEEYKKEGIEWTFIDFGMDLQACIDLIEKPMGIMSILEEECMFPKATDMTFKAKLFDNHLGKSANFQKPRNIKGKPEAHFSLIHYAGIVDYNIIGWLQKNKDPLNETVVGLYQKSSLKLLSTLFANYAGADAPIEKGKGKAKKGSSFQTVSALHRENLNKLMTNLRSTHPHFVRCIIPNETKSPGVMDNPLVMHQLRCNGVLEGIRICRKGFPNRILYGDFRQRYRILNPAAIPEGQFIDSRKGAEKLLSSLDIDHNQYKFGHTKVFFKAGLLGLLEEMRDERLSRIITRIQAQSRGVLARMEYKKLLERR
chain 2: not shown
B2: human β-cardiac myosin sS1-eGFP (MYH7 1-808) H251N with essential light chain (complex)
chain 1: MGDSEMAVFGAAAPYLRKSEKERLEAQTRPFDLKKDVFVPDDKQEFVKAKIVSREGGKVTAETEYGKTVTVKEDQVMQQNPPKFDKIEDMAMLTFLHEPAVLYNLKDRYGSWMIYTYSGLFCVTVNPYKWLPVYTPEVVAAYRGKKRSEAPPHIFSISDNAYQYMLTDRENQSILITGESGAGKTVNTKRVIQYFAVIAAIGDRSKKDQSPGKGTLEDQIIQANPALEAFGNAKTVRNDNSSRFGKFIRINFGATGKLASADIETYLLEKSRVIFQLKAERDYHIFYQILSNKKPELLDMLLITNNPYDYAFISQGETTVASIDDAEELMATDNAFDVLGFTSEEKNSMYKLTGAIMHFGNMKFKLKQREEQAEPDGTEEADKSAYLMGLNSADLLKGLCHPRVKVGNEYVTKGQNVQQVIYATGALAKAVYERMFNWMVTRINATLETKQPRQYFIGVLDIAGFEIFDFNSFEQLCINFTNEKLQQFFNHHMFVLEQEEYKKEGIEWTFIDFGMDLQACIDLIEKPMGIMSILEEECMFPKATDMTFKAKLFDNHLGKSANFQKPRNIKGKPEAHFSLIHYAGIVDYNIIGWLQKNKDPLNETVVGLYQKSSLKLLSTLFANYAGADAPIEKGKGKAKKGSSFQTVSALHRENLNKLMTNLRSTHPHFVRCIIPNETKSPGVMDNPLVMHQLRCNGVLEGIRICRKGFPNRILYGDFRQRYRILNPAAIPEGQFIDSRKGAEKLLSSLDIDHNQYKFGHTKVFFKAGLLGLLEEMRDERLSRIITRIQAQSRGVLARMEYKKLLERR
chain 2: not shown
B3: human β-cardiac myosin sS1-eGFP (MYH7 1-808) S532P with essential light chain (complex)
chain 1: MGDSEMAVFGAAAPYLRKSEKERLEAQTRPFDLKKDVFVPDDKQEFVKAKIVSREGGKVTAETEYGKTVTVKEDQVMQQNPPKFDKIEDMAMLTFLHEPAVLYNLKDRYGSWMIYTYSGLFCVTVNPYKWLPVYTPEVVAAYRGKKRSEAPPHIFSISDNAYQYMLTDRENQSILITGESGAGKTVNTKRVIQYFAVIAAIGDRSKKDQSPGKGTLEDQIIQANPALEAFGNAKTVRNDNSSRFGKFIRIHFGATGKLASADIETYLLEKSRVIFQLKAERDYHIFYQILSNKKPELLDMLLITNNPYDYAFISQGETTVASIDDAEELMATDNAFDVLGFTSEEKNSMYKLTGAIMHFGNMKFKLKQREEQAEPDGTEEADKSAYLMGLNSADLLKGLCHPRVKVGNEYVTKGQNVQQVIYATGALAKAVYERMFNWMVTRINATLETKQPRQYFIGVLDIAGFEIFDFNSFEQLCINFTNEKLQQFFNHHMFVLEQEEYKKEGIEWTFIDFGMDLQACIDLIEKPMGIMPILEEECMFPKATDMTFKAKLFDNHLGKSANFQKPRNIKGKPEAHFSLIHYAGIVDYNIIGWLQKNKDPLNETVVGLYQKSSLKLLSTLFANYAGADAPIEKGKGKAKKGSSFQTVSALHRENLNKLMTNLRSTHPHFVRCIIPNETKSPGVMDNPLVMHQLRCNGVLEGIRICRKGFPNRILYGDFRQRYRILNPAAIPEGQFIDSRKGAEKLLSSLDIDHNQYKFGHTKVFFKAGLLGLLEEMRDERLSRIITRIQAQSRGVLARMEYKKLLERR
chain 2: not shown
B4: human β-cardiac myosin sS1-eGFP (MYH7 1-808) R237W with essential light chain (complex)
chain 1: MGDSEMAVFGAAAPYLRKSEKERLEAQTRPFDLKKDVFVPDDKQEFVKAKIVSREGGKVTAETEYGKTVTVKEDQVMQQNPPKFDKIEDMAMLTFLHEPAVLYNLKDRYGSWMIYTYSGLFCVTVNPYKWLPVYTPEVVAAYRGKKRSEAPPHIFSISDNAYQYMLTDRENQSILITGESGAGKTVNTKRVIQYFAVIAAIGDRSKKDQSPGKGTLEDQIIQANPALEAFGNAKTVWNDNSSRFGKFIRIHFGATGKLASADIETYLLEKSRVIFQLKAERDYHIFYQILSNKKPELLDMLLITNNPYDYAFISQGETTVASIDDAEELMATDNAFDVLGFTSEEKNSMYKLTGAIMHFGNMKFKLKQREEQAEPDGTEEADKSAYLMGLNSADLLKGLCHPRVKVGNEYVTKGQNVQQVIYATGALAKAVYERMFNWMVTRINATLETKQPRQYFIGVLDIAGFEIFDFNSFEQLCINFTNEKLQQFFNHHMFVLEQEEYKKEGIEWTFIDFGMDLQACIDLIEKPMGIMSILEEECMFPKATDMTFKAKLFDNHLGKSANFQKPRNIKGKPEAHFSLIHYAGIVDYNIIGWLQKNKDPLNETVVGLYQKSSLKLLSTLFANYAGADAPIEKGKGKAKKGSSFQTVSALHRENLNKLMTNLRSTHPHFVRCIIPNETKSPGVMDNPLVMHQLRCNGVLEGIRICRKGFPNRILYGDFRQRYRILNPAAIPEGQFIDSRKGAEKLLSSLDIDHNQYKFGHTKVFFKAGLLGLLEEMRDERLSRIITRIQAQSRGVLARMEYKKLLERR
chain 2: not shown
B5: human β-cardiac myosin sS1-eGFP (MYH7 1-808) D239N with essential light chain (complex)
chain 1: MGDSEMAVFGAAAPYLRKSEKERLEAQTRPFDLKKDVFVPDDKQEFVKAKIVSREGGKVTAETEYGKTVTVKEDQVMQQNPPKFDKIEDMAMLTFLHEPAVLYNLKDRYGSWMIYTYSGLFCVTVNPYKWLPVYTPEVVAAYRGKKRSEAPPHIFSISDNAYQYMLTDRENQSILITGESGAGKTVNTKRVIQYFAVIAAIGDRSKKDQSPGKGTLEDQIIQANPALEAFGNAKTVRNNNSSRFGKFIRIHFGATGKLASADIETYLLEKSRVIFQLKAERDYHIFYQILSNKKPELLDMLLITNNPYDYAFISQGETTVASIDDAEELMATDNAFDVLGFTSEEKNSMYKLTGAIMHFGNMKFKLKQREEQAEPDGTEEADKSAYLMGLNSADLLKGLCHPRVKVGNEYVTKGQNVQQVIYATGALAKAVYERMFNWMVTRINATLETKQPRQYFIGVLDIAGFEIFDFNSFEQLCINFTNEKLQQFFNHHMFVLEQEEYKKEGIEWTFIDFGMDLQACIDLIEKPMGIMSILEEECMFPKATDMTFKAKLFDNHLGKSANFQKPRNIKGKPEAHFSLIHYAGIVDYNIIGWLQKNKDPLNETVVGLYQKSSLKLLSTLFANYAGADAPIEKGKGKAKKGSSFQTVSALHRENLNKLMTNLRSTHPHFVRCIIPNETKSPGVMDNPLVMHQLRCNGVLEGIRICRKGFPNRILYGDFRQRYRILNPAAIPEGQFIDSRKGAEKLLSSLDIDHNQYKFGHTKVFFKAGLLGLLEEMRDERLSRIITRIQAQSRGVLARMEYKKLLERR
chain 2: not shown
B6: human β-cardiac myosin sS1-eGFP (MYH7 1-808) A223T with essential light chain (complex)
chain 1: MGDSEMAVFGAAAPYLRKSEKERLEAQTRPFDLKKDVFVPDDKQEFVKAKIVSREGGKVTAETEYGKTVTVKEDQVMQQNPPKFDKIEDMAMLTFLHEPAVLYNLKDRYGSWMIYTYSGLFCVTVNPYKWLPVYTPEVVAAYRGKKRSEAPPHIFSISDNAYQYMLTDRENQSILITGESGAGKTVNTKRVIQYFAVIAAIGDRSKKDQSPGKGTLEDQIIQTNPALEAFGNAKTVRNDNSSRFGKFIRIHFGATGKLASADIETYLLEKSRVIFQLKAERDYHIFYQILSNKKPELLDMLLITNNPYDYAFISQGETTVASIDDAEELMATDNAFDVLGFTSEEKNSMYKLTGAIMHFGNMKFKLKQREEQAEPDGTEEADKSAYLMGLNSADLLKGLCHPRVKVGNEYVTKGQNVQQVIYATGALAKAVYERMFNWMVTRINATLETKQPRQYFIGVLDIAGFEIFDFNSFEQLCINFTNEKLQQFFNHHMFVLEQEEYKKEGIEWTFIDFGMDLQACIDLIEKPMGIMSILEEECMFPKATDMTFKAKLFDNHLGKSANFQKPRNIKGKPEAHFSLIHYAGIVDYNIIGWLQKNKDPLNETVVGLYQKSSLKLLSTLFANYAGADAPIEKGKGKAKKGSSFQTVSALHRENLNKLMTNLRSTHPHFVRCIIPNETKSPGVMDNPLVMHQLRCNGVLEGIRICRKGFPNRILYGDFRQRYRILNPAAIPEGQFIDSRKGAEKLLSSLDIDHNQYKFGHTKVFFKAGLLGLLEEMRDERLSRIITRIQAQSRGVLARMEYKKLLERR
chain 2: not shown

target: TMR-phalloidin-labelled biotinylated actin filaments (UniProt P68135 1-377, biotin (~1 biotin per monomer)); experiment: optical trap, harmonic force spectroscopy

Binder | k0, detachment rate from actin at zero load
B1 | 102 s⁻¹
B2 | 152 s⁻¹
B3 | 80 s⁻¹
B4 | 155 s⁻¹
B5 | 140 s⁻¹
B6 | 104 s⁻¹
